Positions of bridges follow the written chain, without caps; N, C: chain ends.
Legend:
[1] = target: T1, human LRP6 construct E1E2 (amino acids A20-E631) (human, UniProt O75581 20-631, biotinylated for biolayer interferometry); assay: competition phage ELISA
T1 construct: range 20-631; also called LRP6 E1E2
T1 sequence (looked up): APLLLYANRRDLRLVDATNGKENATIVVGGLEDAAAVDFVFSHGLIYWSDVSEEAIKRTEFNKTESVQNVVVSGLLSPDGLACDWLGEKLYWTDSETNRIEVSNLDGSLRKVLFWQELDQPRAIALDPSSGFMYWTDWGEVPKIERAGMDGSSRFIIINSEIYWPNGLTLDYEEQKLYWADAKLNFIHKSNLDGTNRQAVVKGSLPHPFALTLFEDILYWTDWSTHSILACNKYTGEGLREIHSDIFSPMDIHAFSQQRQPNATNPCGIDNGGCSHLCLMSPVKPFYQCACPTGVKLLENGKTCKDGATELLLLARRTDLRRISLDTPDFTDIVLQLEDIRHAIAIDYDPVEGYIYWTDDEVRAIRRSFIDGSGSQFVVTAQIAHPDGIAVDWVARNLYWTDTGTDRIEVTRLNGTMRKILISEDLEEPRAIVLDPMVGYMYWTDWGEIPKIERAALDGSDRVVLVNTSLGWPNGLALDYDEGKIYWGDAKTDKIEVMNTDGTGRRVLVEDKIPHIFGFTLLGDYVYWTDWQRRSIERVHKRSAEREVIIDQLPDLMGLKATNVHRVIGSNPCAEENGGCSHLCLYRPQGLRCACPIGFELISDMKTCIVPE
Method: Peptide affinities were also determined by competition with phage displaying a binding peptide (competition phage ELISA). Serial dilutions of test peptide were mixed with an appropriate (non-saturating) concentration of phage before exposing the mixture to target and allowing it to reach equilibrium. After washing to remove unbound material, bound phage were detected by incubation with anti-M13 antibody-horseradish peroxidase (HRP) conjugate and exposure to a suitable colorometric HRP substrate.
FIG. 7B. These peptides include the “NXI” motif described above. Affinities of the peptides for LRP6 E1E2 were determined by competition phage ELISA (41). […] To understand the detailed interactions of the peptides with LRP6, we determined high-resolution co-crystal structures of the peptides bound to the LRP6 E1 β-propeller.

[2] = target: T2, human LRP6 construct E1 (amino acids A20-D325) (human, UniProt O75581 20-325); assay: legend of FIG. 22
T2 construct: range 20-325; In the Fab crystal E1 arose from E1E2 degraded beyond Arg 335; residues Ala20 to Lys324 were traced; also called LRP6 E1; E1 domain
T2 sequence (looked up): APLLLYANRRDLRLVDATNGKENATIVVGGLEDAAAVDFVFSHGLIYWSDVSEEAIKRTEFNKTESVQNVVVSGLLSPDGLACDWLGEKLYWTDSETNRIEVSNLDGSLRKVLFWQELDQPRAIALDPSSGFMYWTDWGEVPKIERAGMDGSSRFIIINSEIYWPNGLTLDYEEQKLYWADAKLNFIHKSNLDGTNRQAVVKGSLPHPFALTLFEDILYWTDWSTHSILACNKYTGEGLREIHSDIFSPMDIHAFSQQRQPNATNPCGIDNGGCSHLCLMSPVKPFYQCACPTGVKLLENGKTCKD
Method: (§1) Binding kinetics were measured by biolayer interferometry using an Octet Red instrument (ForteBio) as previously described (11). Streptavidin (SA) biosensors were loaded with biotinylated hLRP6 in 50 mMTris, pH 8, 300 mM NaCl, 5% (v/v) glycerol, and 0.05% (w/v) Triton X-100. The loaded biosensors were washed in the same buffer before carrying out association and dissociation measurements for the indicated times. The Kd of each interaction was determined using steady state-analysis through the Octet Red software v6.3. Each reported value represents an average of three or more experiments at different concentrations, with a fitted experimental curve for which the square of the correlation coefficient (R²) is above 0.96.

LRP6 E1E2 = target: T3, LRP6 E1E2 (Homo sapiens, UniProt O75581); assay: Biolayer interferometry binding to LRP6 E1E2; conditions: steady state, read-out: affinity for LRP6 E1E2
T3 construct: construct E1E2-amino acids A20-E631 of LPR6; made in house; host or cells: Tni insect cells (baculovirus, secreted)
T3 sequence (O75581 20-631): T1 sequence (looked up)
Method: as §1, with “(R^2)” for “(R²)”
(§2) The interaction of the different Dkks and sclerostin with various domains of LRP6 was measured using a biolayer interferometry assay (11). Purified receptors contained individual β-propeller-EGF-like units (E1, E2, or E4), two β-propellers (E1E2 or E3E4), or four β-propellers (E1E4))—as follows:
(§3) Human LRP6: construct E1E4-amino acids A20-Q1253 of LPR6; construct E1E2-amino acids A20-E631 of LPR6; construct E3E4 amino acids E631-Q1253 of LPR6; construct E1-amino acids A20-D325 of LPR6; construct E2-amino acids […]-E631 of LPR6; construct E4-T933-Q1253. The individual LRP6 β-propeller E3 could not be expressed.

LRP6 E3E4 = target: T4, LRP6 E3E4 (Homo sapiens, UniProt O75581); assay: Biolayer interferometry binding to LRP6 E3E4; conditions: steady state, read-out: affinity for LRP6 E3E4
T4 construct: construct E3E4 amino acids E631-Q1253 of LPR6; made in house; host or cells: Tni insect cells (baculovirus, secreted)
T4 sequence (O75581 631-1253): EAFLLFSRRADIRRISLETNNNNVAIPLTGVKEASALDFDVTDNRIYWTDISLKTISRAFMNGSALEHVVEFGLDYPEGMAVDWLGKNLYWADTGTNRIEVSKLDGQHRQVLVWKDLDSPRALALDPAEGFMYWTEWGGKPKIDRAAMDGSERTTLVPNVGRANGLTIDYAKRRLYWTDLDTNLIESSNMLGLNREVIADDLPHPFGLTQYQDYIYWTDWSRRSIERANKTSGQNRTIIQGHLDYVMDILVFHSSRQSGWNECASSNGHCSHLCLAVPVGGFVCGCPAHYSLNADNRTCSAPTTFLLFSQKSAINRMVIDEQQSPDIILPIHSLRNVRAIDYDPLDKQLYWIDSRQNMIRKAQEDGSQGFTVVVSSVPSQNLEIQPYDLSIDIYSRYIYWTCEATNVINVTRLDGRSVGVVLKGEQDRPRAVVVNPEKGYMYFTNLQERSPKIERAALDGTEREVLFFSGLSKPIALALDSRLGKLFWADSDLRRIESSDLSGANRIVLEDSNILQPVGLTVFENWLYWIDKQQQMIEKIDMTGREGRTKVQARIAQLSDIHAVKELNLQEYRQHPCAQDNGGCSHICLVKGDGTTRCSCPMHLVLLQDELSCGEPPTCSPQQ
Method: as §1, with “(R^2)” for “(R²)”
as §2, §3

LRP6 E1 = target: T5, LRP6 E1 (Homo sapiens, UniProt O75581); assay: Biolayer interferometry binding to LRP6 E1
T5 construct: construct E1-amino acids A20-D325 of LPR6; made in house; host or cells: Tni insect cells (baculovirus, secreted)
T5 sequence (O75581 20-325): T2 sequence (looked up)
Method: as §1, with “(R^2)” for “(R²)”
as §2, §3

LRP6 E2 = target: T6, LRP6 E2 (Homo sapiens, UniProt O75581); assay: Biolayer interferometry binding to LRP6 E2
T6 construct: construct E2-amino acids D235-E631 of LPR6; made in house; host or cells: Tni insect cells (baculovirus, secreted)
T6 sequence (O75581 325-631 limits assumed): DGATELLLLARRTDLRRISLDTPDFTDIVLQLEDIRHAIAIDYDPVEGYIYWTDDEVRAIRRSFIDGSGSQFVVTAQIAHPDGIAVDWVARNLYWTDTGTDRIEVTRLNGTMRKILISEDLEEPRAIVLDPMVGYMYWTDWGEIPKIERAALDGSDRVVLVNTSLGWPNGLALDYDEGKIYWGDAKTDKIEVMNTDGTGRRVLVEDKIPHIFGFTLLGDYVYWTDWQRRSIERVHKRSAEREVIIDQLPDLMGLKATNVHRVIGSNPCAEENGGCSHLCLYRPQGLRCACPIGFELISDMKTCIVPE
Method: as §1, with “(R^2)” for “(R²)”
as §2, §3

LRP6 E4 = target: T7, LRP6 E4 (Homo sapiens, UniProt O75581); assay: Biolayer interferometry binding to LRP6 E4
T7 construct: construct E4-T933-Q1253; made in house; host or cells: Tni insect cells (baculovirus, secreted)
T7 sequence (O75581 933-1253): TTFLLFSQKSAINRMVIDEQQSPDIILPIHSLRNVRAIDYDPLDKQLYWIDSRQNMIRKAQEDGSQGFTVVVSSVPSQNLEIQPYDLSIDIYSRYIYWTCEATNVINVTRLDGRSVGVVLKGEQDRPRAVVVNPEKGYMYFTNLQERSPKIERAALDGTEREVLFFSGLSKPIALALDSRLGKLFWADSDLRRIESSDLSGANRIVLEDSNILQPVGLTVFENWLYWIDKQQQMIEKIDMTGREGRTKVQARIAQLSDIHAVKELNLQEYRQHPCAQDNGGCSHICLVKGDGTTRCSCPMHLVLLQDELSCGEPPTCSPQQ
Method: as §1, with “(R^2)” for “(R²)”
as §2, §3

LRP6 = assay: Competition binding between Dkk1 and other Wnt pathway inhibitors (preloaded Dkk1); parameters: species or system human; conditions: Dkk1 100 nM preloaded, test ligand 100 nM
Method: FIG. 8. Competition binding between Dkk1 and other Wnt pathway inhibitors. The indicated LRP6 construct was preloaded onto biosensor tips. Dkk1 (100 nM) (or buffer control) and the test ligand (100 nM) were loaded sequentially onto the LRP6 tips. (A) Dkk2 competition with Dkk1. (B) Sclerostin competition with Dkk1. Percent binding in the presence of Dkk1 is shown relative to buffer control.
as §1, with “(R^2)” for “(R²)”
To assess whether Dkk1, Dkk2, and sclerostin might bind to the same site on LRP6 E1, Dkk2 or sclerostin binding was measured in the presence of preloaded Dkk1 (100 nM). […]

Ac-NSNAIKN-NH2 (also called Dkk1 peptide) [Dkk1 7-mer peptide Ac-NSNAIKN-am] showed an IC50 [1] of 4000 nM.

Ac-CNSIKFCG-NH2 (disulfide 1-7 (inferred), also called Peptide B) [Ac-CNSIKFCG-am (disulfide)]: binds [2].

B1: Dkk2: Dickkopf 2, carrier-free protein from R&D Systems (protein, UniProt Q9UBU2 34-259, looked up)
Dickkopf-related protein 2: KLNSIKSSLGGETPGQAANRSAGMYQGLAFGGSKKGKNLGQAYPCSSDKECEVGRYCHSPHQGSSACMVCRRKKKRCHRDGMCCPSTRCNNGICIPVTESILTPHIPALDGTRHRDRNHGHYSNHDLGWQNLGRPHTKMSHIKGHEGDPCLRSSDCIEGFCCARHFWTKICKPVLHQGEVCTKQRKKGSHGLEIFQRCDCAKGLSCKVWKDATYSSKARLHVCQKI
In the case of B1, the Kd (LRP6 E1E2) is reported as 53 nM, the Kd (LRP6 E3E4) is reported as 38 nM and the “binding to LRP6 E1 (in words)” value (LRP6 E1) is reported as “bind with high affinity”. For the same molecule, the “binding to LRP6 E2 (in words)” value (LRP6 E2) was “Partial binding”, the “binding to LRP6 E4 (in words)” value (LRP6 E4) was “undetectable” and the “binding to LRP6 in the presence of preloaded Dkk1” value (LRP6) was “inhibited only slightly”.

From US20140235820A1, “METHODS AND COMPOSITIONS FOR MODULATING THE Wnt PATHWAY” (Genentech, Inc., priority 2010, published 2014)
